From IntAct's records for PubMed 28698298

B1: GRB10-interacting GYF protein 2 (Homo sapiens), Q6Y7W6 (parent)
chain: MAAETQTLNFGPEWLRALSSGGSITSPPLSPALPKYKLADYRYGREEMLALFLKDNKIPSDLLDKEFLPILQEEPLPPLALVPFTEEEQRNFSMSVNSAAVLRLTGRGGGGTVVGAPRGRSSSRGRGRGRGECGFYQRSFDEVEGVFGRGGGREMHRSQSWEERGDRRFEKPGRKDVGRPNFEEGGPTSVGRKHEFIRSESENWRIFREEQNGEDEDGGWRLAGSRRDGERWRPHSPDGPRSAGWREHMERRRRFEFDFRDRDDERGYRRVRSGSGSIDDDRDSLPEWCLEDAEEEMGTFDSSGAFLSLKKVQKEPIPEEQEMDFRPVDEGEECSDSEGSHNEEAKEPDKTNKKEGEKTDRVGVEASEETPQTSSSSARPGTPSDHQSQEASQFERKDEPKTEQTEKAEEETRMENSLPAKVPSRGDEMVADVQQPLSQIPSDTASPLLILPPPVPNPSPTLRPVETPVVGAPGMGSVSTEPDDEEGLKHLEQQAEKMVAYLQDSALDDERLASKLQEHRAKGVSIPLMHEAMQKWYYKDPQGEIQGPFNNQEMAEWFQAGYFTMSLLVKRACDESFQPLGDIMKMWGRVPFSPGPAPPPHMGELDQERLTRQQELTALYQMQHLQYQQFLIQQQYAQVLAQQQKAALSSQQQQQLALLLQQFQTLKMRISDQNIIPSVTRSVSVPDTGSIWELQPTASQPTVWEGGSVWDLPLDTTTPGPALEQLQQLEKAKAAKLEQERREAEMRAKREEEERKRQEELRRQQEEILRRQQEEERKRREEEELARRKQEEALRRQREQEIALRRQREEEERQQQEEALRRLEERRREEEERRKQEELLRKQEEEAAKWAREEEEAQRRLEENRLRMEEEAARLRHEEEERKRKELEVQRQKELMRQRQQQQEALRRLQQQQQQQQLAQMKLPSSSTWGQQSNTTACQSQATLSLAEIQKLEEERERQLREEQRRQQRELMKALQQQQQQQQQKLSGWGNVSKPSGTTKSLLEIQQEEARQMQKQQQQQQQHQQPNRARNNTHSNLHTSIGNSVWGSINTGPPNQWASDLVSSIWSNADTKNSNMGFWDDAVKEVGPRNSTNKNKNNASLSKSVGVSNRQNKKVEEEEKLLKLFQGVNKAQDGFTQWCEQMLHALNTANNLDVPTFVSFLKEVESPYEVHDYIRAYLGDTSEAKEFAKQFLERRAKQKANQQRQQQQLPQQQQQQPPQQPPQQPQQQDSVWGMNHSTLHSVFQTNQSNNQQSNFEAVQSGKKKKKQKMVRADPSLLGFSVNASSERLNMGEIETLDDY
B2: Eukaryotic translation initiation factor 4E type 2 (Homo sapiens), O60573-1 (parent)
chain: MNNKFDALKDDDSGDHDQNEENSTQKDGEKEKTERDKNQSSSKRKAVVPGPAEHPLQYNYTFWYSRRTPGRPTSSQSYEQNIKQIGTFASVEQFWRFYSHMVRPGDLTGHSDFHLFKEGIKPMWEDDANKNGGKWIIRLRKGLASRCWENLILAMLGEQFMVGEEICGAVVSVRFQEDIISIWNKTASDQATTARIRDTLRRVLNLPPNTIMEYKTHTDSIKMPGRLGPQRLLFQNLWKPRLNVP
B3: GRB10-interacting GYF protein 1 (Homo sapiens), O75420 (parent)
chain: MAAETLNFGPEWLRALSGGGSVASPPPSPAMPKYKLADYRYGREEMLALYVKENKVPEELQDKEFAAVLQDEPLQPLALEPLTEEEQRNFSLSVNSVAVLRLMGKGAGPPLAGTSRGRGSTRSRGRGRGDSCFYQRSIEEGDGAFGRSPREIQRSQSWDDRGERRFEKSARRDGARCGFEEGGAGPRKEHARSDSENWRSLREEQEEEEEGSWRLGAGPRRDGDRWRSASPDGGPRSAGWREHGERRRKFEFDLRGDRGGCGEEEGRGGGGSSHLRRCRAPEGFEEDKDGLPEWCLDDEDEEMGTFDASGAFLPLKKGPKEPIPEEQELDFQGLEEEEEPSEGLEEEGPEAGGKELTPLPPQEEKSSSPSPLPTLGPLWGTNGDGDETAEKEPPAAEDDIRGIQLSPGVGSSAGPPGDLEDDEGLKHLQQEAEKLVASLQDSSLEEEQFTAAMQTQGLRHSAAATALPLSHGAARKWFYKDPQGEIQGPFTTQEMAEWFQAGYFSMSLLVKRGCDEGFQPLGEVIKMWGRVPFAPGPSPPPLLGNMDQERLKKQQELAAAALYQQLQHQQFLQLVSSRQLPQCALREKAALGDLTPPPPPPPQQQQQQLTAFLQQLQALKPPRGGDQNLLPTMSRSLSVPDSGRLWDVHTSASSQSGGEASLWDIPINSSTQGPILEQLQLQHKFQERREVELRAKREEEERKRREEKRRQQQQEEQKRRQEEEELFRRKHVRQQELLLKLLQQQQAVPVPPAPSSPPPLWAGLAKQGLSMKTLLELQLEGERQLHKQPPPREPARAQAPNHRVQLGGLGTAPLNQWVSEAGPLWGGPDKSGGGSSGLGLWEDTPKSGGSLVRGLGLKNSRSSPSLSDSYSHLSGRPIRKKTEEEEKLLKLLQGIPRPQDGFTQWCEQMLHTLSATGSLDVPMAVAILKEVESPYDVHDYIRSCLGDTLEAKEFAKQFLERRAKQKASQQRQQQQEAWLSSASLQTAFQANHSTKLGPGEGSKAKRRALMLHSDPSILGYSLHGSSGEIESVDDY

Variants of: B1
Details: with EIF4E2, O60573-1

Variant	effect of a mutation on the interaction
E46A;E47F;Q89A	with no effect

Variants of: B1
Details: with EIF4E2, O60573-1
Remark: another data set of the same source

Variant	effect of a mutation on the interaction
E46A;E47F;Q89A	with no effect

Variants of: B1
Details: with EIF4E2, O60573-1
Remark: another data set of the same source

Variant	effect of a mutation on the interaction
Y41A;Y43A;M48A;L49A	disrupting interaction strength

Variants of: B2
Details: with 4ebp1_human EIF4EBP1, Q13541
Chain of 4ebp1_human EIF4EBP1, Q13541 (Q13541 whole entry): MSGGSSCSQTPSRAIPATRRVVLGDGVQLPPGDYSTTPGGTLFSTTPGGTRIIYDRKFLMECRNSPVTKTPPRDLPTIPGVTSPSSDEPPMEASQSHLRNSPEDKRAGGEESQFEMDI

Variant	effect of a mutation on the interaction
MNNKFDALKDDDSGDHDQNEENSTQKDGEKEKTERDKNQSSSKRKAVVPGPAEHPLQYNYTFWYSRRTPGRPTSSQSYEQNIKQIGTFASVEQFARFYSHMVRPGDLTGHSDFHLFKEGIKPMWEDDANKNGGKWIIRLRKGLASRCWENLILAMLGEQFMVGEEICGAVVSVRFQEDIISIWNKTASDQATTARIRDTLRRVLNLPPNTIMEYKTHTDSIKMPGRLGPQRLLFQNLWKPRLNVP [W95A]	disrupting interaction strength
MNNKFDALKDDDSGDHDQNEENSTQKDGEKEKTERDKNQSSSKRKAVVPGPAEHPLQYNYTFWYSRRTPGRPTSSQSYEQNIKQAGTFASVEQFWRFYSHAVRPGDLTGHSDFHLFKEGIKPMWEDDANKNGGKWIIRLRKGLASRCWENLILAMLGEQFMVGEEICGAVVSVRFQEDIISIWNKTASDQATTARIRDTLRRVLNLPPNTIMEYKTHTDSIKMPGRLGPQRLLFQNLWKPRLNVP [I85A;M101A]	disrupting interaction strength

Variants of: B2
Details: with 4ebp1_human EIF4EBP1, Q13541
Remark: another data set of the same source

Variant	effect of a mutation on the interaction
MNNKFDALKDDDSGDHDQNEENSTQKDGEKEKTERDKNQSSSKRKAVVPGPAEHPLQYNYTFWYSRRTPGRPTSSQSYEQNIKQIGTFASVEQFWRFYNHMVRPGDLTGHSDFHLFKEGIKPMWEDDANKNGGKWIIRLRKGLASRCWENLILAMLGEQFMVGEEICGAVVSVRFQEDIISIWNKTASDQATTARIRDTLRRVLNLPPNTIMEYKTHTDSIKMPGRLGPQRLLFQNLWKPRLNVP [S99N]	increasing interaction strength

Variants of: B3
Details: with EIF4E2, O60573-1

Variant	effect of a mutation on the interaction
E44F;E45A;Q87A	with no effect

Variants of: B3
Details: with EIF4E2, O60573-1
Remark: another data set of the same source

Variant	effect of a mutation on the interaction
E44A;E45F;Q87A	with no effect

Variants of: B3
Details: with EIF4E2, O60573-1
Remark: another data set of the same source

Variant	effect of a mutation on the interaction
L60D;F65D;V68D;E86A;N95F	disrupting interaction strength
L60D;F65D;V68D;P76D;L77A	disrupting interaction strength
E86A;N95F	with no effect
L60D;F65A;V68D	with no effect

Variants of: B3
Details: with EIF4E2, O60573-1
Remark: another data set of the same source

Variant	effect of a mutation on the interaction
Y39A;Y41A;M46A;L47A	disrupting interaction strength
